Experimental findings from patent US20220098240A1 (FUJIFILM, published 2022) are described below.

Bridge positions count the residues as written; N and C are the ends. Square brackets hold non-standard residues; d marks the D form. Ends that are not written are not given here. COCH2 = acetyl group that carries the bridge; hCys = N[C@@H](CCS)C(=O)O; Orn = NCCC[C@H](N)C(=O)O; Dab = NCC[C@H](N)C(=O)O; Dap = NC[C@H](N)C(=O)O

B1: Cyclic peptide 10 (peptide)
peptide: ICRGD[Orn]FCKKK
modifications: bridge N-8, 2-6; not fully specified (residue 6, N-terminus, bridges)
notes: bicyclic; all residues L; immobilised on CM5 chip through amino groups
B2: Cyclic peptide 13 (peptide)
peptide: XXRGDXFCKKK
modifications: not fully specified; thioether: I1 alpha-NH2 through acetyl to C8; thioether: Dap(acetyl)2 to Hcy6
notes: as for B1
B3: Cyclic peptide 19 (peptide)
peptide: {CH2CO}-I[hCys]RGD[Dab](COCH2)FCKKK
modifications: thioether 2-6 via Ac; thioether N-8; not fully specified
notes: as for B1
B4: Cyclic peptide 7 (peptide)
peptide: {CH2CO}-I[hCys]RGD[Dab]F[hCys]KKK
modifications: thioether N-8; bridge 2-6; not fully specified (residue 6, bridges); printed as I- -RGD F-(Hcy)-KKK
B5: Cyclic peptide 6 (peptide)
peptide: {CH2CO}-ICRGD[Dap](COCH2)FCKKK
modifications: thioether 2-6 via Ac; thioether N-8
notes: as for B1

T1 sequence (P06756 31-992, chain 1 of 2): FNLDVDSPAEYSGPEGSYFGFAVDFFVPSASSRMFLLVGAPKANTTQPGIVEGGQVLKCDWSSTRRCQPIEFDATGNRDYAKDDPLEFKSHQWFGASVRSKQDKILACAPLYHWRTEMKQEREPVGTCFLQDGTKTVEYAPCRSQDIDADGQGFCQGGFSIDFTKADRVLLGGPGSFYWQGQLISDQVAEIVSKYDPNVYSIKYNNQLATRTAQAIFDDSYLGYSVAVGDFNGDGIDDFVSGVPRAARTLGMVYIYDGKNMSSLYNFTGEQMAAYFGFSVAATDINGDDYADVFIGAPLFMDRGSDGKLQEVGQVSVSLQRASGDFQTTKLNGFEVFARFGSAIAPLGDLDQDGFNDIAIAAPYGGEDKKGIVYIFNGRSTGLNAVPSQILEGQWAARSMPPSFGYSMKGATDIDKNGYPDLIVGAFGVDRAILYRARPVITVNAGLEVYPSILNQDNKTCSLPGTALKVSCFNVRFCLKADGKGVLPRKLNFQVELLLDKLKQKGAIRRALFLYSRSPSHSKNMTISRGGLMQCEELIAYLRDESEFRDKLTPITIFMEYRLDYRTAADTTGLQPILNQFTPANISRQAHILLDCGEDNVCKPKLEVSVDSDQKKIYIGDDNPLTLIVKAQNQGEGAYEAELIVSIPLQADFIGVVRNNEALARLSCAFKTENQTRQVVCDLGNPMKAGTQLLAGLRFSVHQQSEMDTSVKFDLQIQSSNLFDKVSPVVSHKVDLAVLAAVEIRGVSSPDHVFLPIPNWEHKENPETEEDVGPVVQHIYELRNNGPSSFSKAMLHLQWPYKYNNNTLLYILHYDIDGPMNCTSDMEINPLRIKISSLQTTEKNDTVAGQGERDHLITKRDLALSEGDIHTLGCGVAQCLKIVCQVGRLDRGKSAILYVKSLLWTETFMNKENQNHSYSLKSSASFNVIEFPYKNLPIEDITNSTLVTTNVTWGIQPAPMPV
T1 sequence (P18084 24-719, chain 2 of 2): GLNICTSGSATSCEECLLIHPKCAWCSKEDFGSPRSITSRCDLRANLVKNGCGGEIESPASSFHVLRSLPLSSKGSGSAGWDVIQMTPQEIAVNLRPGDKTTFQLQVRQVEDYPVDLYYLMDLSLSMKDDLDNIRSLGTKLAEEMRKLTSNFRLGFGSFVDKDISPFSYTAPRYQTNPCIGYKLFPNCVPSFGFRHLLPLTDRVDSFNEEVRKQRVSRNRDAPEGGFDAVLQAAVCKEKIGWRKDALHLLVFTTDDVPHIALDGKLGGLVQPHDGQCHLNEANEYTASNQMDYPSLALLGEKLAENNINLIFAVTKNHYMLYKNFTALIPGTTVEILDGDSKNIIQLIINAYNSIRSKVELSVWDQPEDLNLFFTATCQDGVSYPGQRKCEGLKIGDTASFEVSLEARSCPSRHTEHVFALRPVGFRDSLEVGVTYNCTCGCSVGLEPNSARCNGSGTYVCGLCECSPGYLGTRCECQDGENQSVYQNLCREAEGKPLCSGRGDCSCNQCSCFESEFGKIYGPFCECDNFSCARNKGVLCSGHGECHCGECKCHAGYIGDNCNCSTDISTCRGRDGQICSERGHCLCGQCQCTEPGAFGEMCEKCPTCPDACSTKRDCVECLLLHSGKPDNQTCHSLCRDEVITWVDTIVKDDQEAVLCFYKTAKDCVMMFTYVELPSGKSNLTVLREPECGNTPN

One test addresses T1, human integrin αvβ5 (human, UniProt P06756 31-992; P18084 24-719).
T1 construct: soluble analyte in SPR at 30, 100, 300 and 1,000 nM in HEPES buffer with 5 mM magnesium chloride; heterodimer of an alpha and a beta chain
Nature of the test: SPR, Biacore 3000, peptide immobilised on CM5 chip, integrin 30-1000 nM flowed; grade B = dissociation constant more than 50 nM and 100 nM or less. Here is the method:
(§1) However, only for the cyclic peptide 22, in which the number of lysine residues having an amino group as the immobilizing functional group was 1, the sample solution to be supplied to the sensor chip was set to 5,000 μL instead of 300 μL. Similarly, 70 μL of the mixed aqueous solution of 0.2 M EDC and 0.04 M NHS was added to another flow channel of the same sensor chip without immobilizing the sample, and then blocking treatment and washing treatment were carried out. Hereinafter, the obtained immobilization-treated sensor chip is referred to as an “immobilization-treated sensor chip A”.
(§2) After adding human integrin αvβ5 for 10 minutes at 25° C., which was diluted to 30 nM using a HEPES buffer solution to which magnesium chloride was added to 5 mM, in each flow channel of the immobilization-treated sensor chip A prepared in (1) above, the same HEPES buffer solution (containing 5 mM magnesium chloride) was allowed to flow as a running buffer for 30 minutes, and measurement was carried out with Biacore 3000.
(§3) Then, a regeneration treatment of removing human integrin αvβ5 was carried out by allowing a 0.5 M EDTA aqueous solution to flow through each flow channel for 10 minutes. Further, the above-described measurement process consisting of adding integrin for 10 minutes, allowing a running buffer to flow for 30 minutes, carrying out measurement with Biacore 3000, and carrying out regeneration treatment with 0.5 M EDTA aqueous solution was carried out in the same manner for 100 nM human integrin αvβ5, 300 nM human integrin αvβ5, and 1,000 nM human integrin αvβ5. Dissociation constant between the cyclic peptide and human integrin αvβ5 was calculated from the difference between the value measured by Biacore 3000 in the flow channel immobilized with the cyclic peptide and the value measured by Biacore 3000 in the flow channel unimmobilized with the cyclic peptide, in a case where each concentration of human integrin αvβ5 was allowed to flow, and the integrin binding property was evaluated according to the following evaluation standards. It is preferable that the evaluation result satisfies the evaluation standard A, B, or C.
For orientation: SPR reads the build-up and loss of mass on a sensor chip optically.
KKK[hCys][hCys]RGDK(COCH2)FK(COCH2)A (thioether 4-11, 5-9) [Cyclic peptide 37] yielded a dissociation constant of 50 to 100 nM. {CH2CO}-I[hCys]RGDK(COCH2)P[hCys]KKK (thioether 2-6, N-8) [Cyclic peptide 31] gave a dissociation constant of 50 to 100 nM. On to B1, for which the “dissociation constant (KD)” value was 50 to 100 nM.

Consider B2, for which the “dissociation constant (KD)” value is 50 to 100 nM. {CH2CO}-IK(COCH2)RGD[hCys]F[hCys]KKK (thioether 2-6, N-8) [Cyclic peptide 4] came in with a dissociation constant (KD) of 50 to 100 nM.

On to {CH2CO}-I[hCys]RGD[Orn](COCH2)F[hCys]KKK (thioether 2-6, N-8) [Cyclic peptide 9], for which the dissociation constant (KD) was 50 to 100 nM.

Regarding {CH2CO}-I[hCys]RGDK(COCH2)FA[hCys]KKK (thioether 2-6, N-9) [Cyclic peptide 34], the dissociation constant lay in the range of 50 to 100 nM.

On to {CH2CO}-V[hCys]RGD[Orn](COCH2)F[hCys]KKK (thioether 2-6, N-8) [Cyclic peptide 41], for which the dissociation constant lay in the range of 50 to 100 nM. For B3, the “dissociation constant (KD)” value fell in the range of 50 to 100 nM. {CH2CO}-I[hCys]RGDK(COCH2)Y[hCys]KKK (thioether 2-6, N-8) [Cyclic peptide 32] had a dissociation constant of 50 to 100 nM. As for {CH2CO}-I[hCys]RGD[Dap](COCH2)F[hCys]KKK (thioether 2-6, N-8) [Cyclic peptide 5], the dissociation constant (KD) lay in the range of 50 to 100 nM. In the case of A[hCys][hCys]RGDK(COCH2)FK(COCH2)KKK (thioether 2-9, 3-7) [Cyclic peptide 36], the dissociation constant was in the range of 50 to 100 nM. As for B4, the dissociation constant (KD) is 50 to 100 nM.

A further test concerns the target T1, human integrin αvβ5. Briefly: SPR, Biacore 3000, peptide immobilised on CM5 chip, integrin 30-1000 nM flowed; grade C = dissociation constant more than 100 nM and 200 nM or less. Here is the method:
as §1, §2
as §3, with “It is preferable that the evaluation result satisfies the evaluation standard A, B, or C.” left out
As for B5, the “dissociation constant (KD)” value fell in the range of 100 to 200 nM. The molecule {CH2CO}-I[hCys]RGDK(COCH2)FR[hCys]KKK (thioether 2-6, N-9) [Cyclic peptide 33] displayed a dissociation constant of 100 to 200 nM.

The molecule {CH2CO}-I[Dab](COCH2)RGD[hCys]F[hCys]KKK (thioether 2-6, N-8) [Cyclic peptide 2] showed a dissociation constant (KD) of 100 to 200 nM.
